Key:
[1] = molecular target: EGF/TGF-alpha receptor of normal rat kidney (NRK) cells (170-kD receptor species) (rat (endogenous in NRK)); test: radioligand binding
[2] = molecular target: EGF/TGF-alpha receptor of A431 cells (human (endogenous in A431)) (UniProt P00533); test: radioligand binding

## transforming growth factor-alpha (native, unlabeled TGF-alpha) (from UniProt P01134 39-88) (ligand)
[1]
  125I-TGF-alpha bound with 66 nM TGF-alpha (NRK membranes) (fmol/mg protein): 1.2

## 125I-labeled transforming growth factor-alpha (125I-TGF-alpha) (from UniProt P01134 39-88) (ligand)
[1]
  125I-TGF-alpha bound with 66 nM TGF-beta (NRK membranes) (fmol/mg protein): 5.6
  125I-TGF-alpha bound with 330 nM TGF-beta (NRK membranes) (fmol/mg protein): 5.6
  125I-TGF-alpha bound, no competing ligand (NRK membranes) (fmol/mg protein): 5.4
  Kd, high-affinity sites: 0.2 to 0.3 nM
  Kd, low-affinity sites: 2.7 to 2.9 nM
  specific binding at 0.3 nM ligand, cells not treated with TGF-beta (Fig. 1A): 810 cpm/well

## mouse submaxillary gland epidermal growth factor (native, unlabeled EGF) (ligand)
[2]
  125I-TGF-alpha bound with 66 nM EGF (A431 membranes) (fmol/mg protein): 140
[1]
  125I-TGF-alpha bound with 66 nM EGF (NRK membranes) (fmol/mg protein): 1.6

## 125I-labeled mouse submaxillary gland epidermal growth factor (125I-EGF) (ligand)
[1]
  specific binding at 0.3 nM ligand, monolayers not treated with TGF-beta (Fig. 2): 785 cpm/well

Reference: PMC2113854
